Sequences and labels used below:
B1: Atp5a1 pS184 (protein, UniProt P15999 44-553, looked up)
ATP synthase F(1) complex …: QKTGTAEMSSILEERILGADTSVDLEETGRVLSIGDGIARVHGLRNVQAEEMVEFSSGLKGMSLNLEPDNVGVVVFGNDKLIKEGDIVKRTGAIVDVPVGDELLGRVVDALGNAIDGKGPVGSKIRRRVGLKAPGIIPRISVREPMQTGIKAVDSLVPIGRGQRELIIGDRQTGKTSIAIDTIINQKRFNDGTDEKKKLYCIYVAIGQKRSTVAQLVKRLTDADAMKYTIVVSATASDAAPLQYLAPYSGCSMGEYFRDNGKHALIIYDDLSKQAVAYRQMSLLLRRPPGREAYPGDVFYLHSRLLERAAKMNDSFGGGSLTALPVIETQAGDVSAYIPTNVISITDGQIFLETELFYKGIRPAINVGLSVSRVGSAAQTRAMKQVAGTMKLELAQYREVAAFAQFGSDLDAATQQLLSRGVRLTELLKQGQYSPMAIEEQVAVIYAGVRGYLDKLEPSKITKFESAFLSHVVSQHQSLLGNIRSDGKISEQSDAKLKEIVTNFLAGFEP
modifications: phosphorylated at S184
B2: Atp5a1 pS76 (protein, UniProt P15999 44-553, looked up)
ATP synthase F(1) complex …: B1 ATP synthase F(1) complex …
modifications: phosphorylated at S76
B3: Clasp2 pS436 (protein, UniProt Q99JD4 1-1286, looked up)
CLIP-associating protein 2: MRRLICKRICDYKSFDDEESVDGNRPSSAASAFKVPAPKTPGNPVNSARKPGSAGGPKAGGTSKEGGAGAVDEDDFIKAFTDVPSIQIYSSRELEETLNKIREILSDDKHDWDQRANALKKIRSLLVAGAAQYDCFFQHLRLLDGALKLSAKDLRSQVVREACITVAHLSTVLGNKFDHGAEAIVPTLFNLVPNSAKVMATSGCAAIRFIIRHTHVPRLIPLITSNCTSKSVPVRRRSFEFLDLLLQEWQTHSLERHAAVLVETIKKGIHDADAEARVEARKTYMGLRNHFPGEAETLYNSLEPSYQKSLQTYLKSSGSVASLPQSDRSSSSSQESLNRPFSSKWSTANPSAVAGRVSVGGSKASPLPGSLQRSRSDIDVNAAAGAKAHHAAGQAVRSGRLGAGALNPGSYASLEDTSDKMDGTASEDGRVRAKLSTPLVAVGNAKTDSRGRSRTKMVSQSQPGSRSGSPGRVLTTTALSTVSSGAQRILVNSASAQKRSKIPRSQGCSREASPSRLSVARSSRIPRPSVSQGCSREASRESSRDTSPVRSFQPLGPGYGMSQSSRLSSSVSAMRVLNTGSDVEEAVADALLLGDIRTKKKPARRRYESYGMHSDDDANSDASSACSERSYSSRNGSIPTYMRQTEDVAEVLNRCASSNWSERKEGLLGLQNLLKNQRTLSRVELKRLCEIFTRMFADPHGKVFSMFLETLVDFIQVHKDDLQDWLFVLLTQLLKKMGADLLGSVQAKVQKALDVTRESFPNDLQFNILMRFTVDQTQTPSLKVKVAILKYIETLAKQMDPGDFINSSETRLAVSRVITWTTEPKSSDVRKAAQSVLISLFELNTPEFTMLLGALPKTFQDGATKLLHNHLRNTGNGTQSSMGSPLTRPTPRSPANWSSPLTSPTNTSQNTLSPSAFDYDTENMNSEDIYSSLRGVTEAIQNFSFRSQEDMSEPLKRDPKKEDGDTVCSGPGMSDPRAGGDAPDSSQPALDNKASLLHSVPLHSSPRSRDYNPYNYSDSISPFNKSALKEAMFDDDADQFPDDLSLDHSDLVAELLKELSNHNERIEERKIALYELMKLTQEESFSVWDEHFKTILLLLLETLGDKEPTIRALALKVLKEILRHQPARFKNYAELTVMKTLEAHKDPHKEVVRSAEEAASVLATSISPEQCIKVLCPIIQTADYPINLAAIKMQTKVIERVSKETLNLLLPEIMPGLIQGYDNSESSVRKACVFCLVAVHAVIGDELKPHLSQLTGSKMKLLNLYIKRAQTGSAGADPTTDVSGQS
modifications: phosphorylated at S436
B4: Eml1 pS108 (protein, UniProt Q4V8C3 1-814, looked up)
Echinoderm …: MEDGFSSYSSLYDTSSLLQFCNDDSASAASSMEISDRIASLEQRVQMQEDDIQLLKSALADVVRRLNITEEQQAVLNRKGPTKARPLGQTLPLRTTVNNGTVLPKKPSASLPSPSGSRKEMVVPVTKSINRTSSSERVSPGGRRESSGDSKGSRNRTGSTSSSSSGKKNSESKPKEPTFSPEEGYVKMFLRGRPVTMYMPKDQVDSYSLEAKAELPTKRLKLEWVYGYRGRDCRNNLYLLPTGETVYFIASVVVLYNVEEQLQRHYAGHNDDVKCLAVHPDRITIATGQVAGTSKDGKQLPPHVRIWDSVTLNTLHVIGIGFFDRAVTCIAFSKSNGGSHLCAVDDSNDHVLSVWDWQREERLADVKCSNEAVFAADFHPTDTNIIVTCGKSHLYFWTLEGNSLNKKQGLFEKQEKPKFVLCVTFSENGDTITGDSSGNILVWGKGTNRISYAVQGAHEGGIFALCMLRDGTLVSGGGKDRRLISWNGNYQKLHKAEIPEQFGPIRTVAEGKGNVILIGTTRNFVLQGTLTGDFTPITQGHTDELWGLAIHASKPQFLTCGHDKHATLWDAVGHRPVWDKIIEDPAQSSGFHPSGSVVAVGTLTGRWFVFDTETKDLVTVHTDGNEQLSVMRYSPDGNFLAIGSHDNCIYIYGVSDNGRKYTRVGKCSGHSSFITHLDWSVNSQFLVSNSGDYEILYWVPSACKQVVSVETTRDIEWATYTCTLGFHVFGVWPEGSDGTDINAVCRAHEKKLLSTGDDFGKVHLFSYPCSQFRAPSHIYSGHSSHVTNVDFLCEDSHLISTGGKDTSIMQWRVI
modifications: phosphorylated at S108
B5: Akap1 pS103 (protein, UniProt O88884 30-854, looked up)
A-kinase anchor protein 1, …: KDRLSSNGKQVGTLKVGPAIEDRLPTEEACPGVLSVTPSVTQPPGKEEQRSMDRPLSDPPALPRTRQVRRRSESSGNLPSIVDTRLQAGQCSDENSKVVLSLMGDEAKSIPLGRPLFPKDLSFPYEAVEGCKQESALGRTPGRGWLSQCAASGENARETGGAEGTGDAVLGESVLEEGLLPQECVSEVEKSEFPILAPGGGGGEKVRSGPPQVDELLKKEEYIVGKLPSSFVGPVHSELVKDEGALVPQVKGSQDRSLARELDKDKTLPEKDQIEQTAFQIISQVILEATEEIRATTVGKTVAQVHPTPGTQPQGQEESCVPASQETSLGQEIPDPASTRTGATASPSAGAPPPKTYVSCLSSPLSGPTKDQKPKNSAHHISLAPCPPPVTPQRQSLDGASNPRGDDTFVTCTSNNSQSVLSVTSLGLCSDPVSTSRLEDSCTETISSSGDKAVTPPLPDSTEPFSNGVLKEELSDLGTEDGWTMDTEADHSGGSDGNSMDSVDSCCGLTKPDSPQTVQAGSNPKKVDLIIWEIEVPKHLVGRLIGKQGRYVSFLKQTSGAKIYISTLPYTQNIQICHIEGSQHHVDKALNLIGKKFKELNLTNIYAPPLPSLALPSLPMTSWLMLPDGITVEVIVVNQVNAGHLFVQQHTHPTFHALRSLDQQMYLCYSQPGIPTLPTPVEITVICAAPGADGAWWRAQVVASYEETNEVEIRYVDYGGYKRVKVDVLRQIRSDFVTLPFQGAEVLLDSVVPLSDDDHFSPEADAAMSEMTGNTALLAQVTSYSATGLPLIQLWSVVGDEVVLINRSLVERGLAQWVDSCYASL
modifications: phosphorylated at S103
B6: Dync1li1 pT408 (protein, UniProt Q9QXU8 1-523, looked up)
Cytoplasmic dynein 1 light …: MAAVGRVGSFGSSPPGLASTYASGPLANELASGSGGPAAGDDEDGQNLWSRILREVSTRSRSKLPTGKNVLLLGEDGAGKTSLIRRIQGIEEYKKGRGLEYLYLNVHDEDRDDQTRCNVWILDGDLYHKGLLKFSLDALSLRDTLVMLVVDMSKPWTALDSLQKWASVVREHVDKLKIPPEEMKEMEQKLIRDFQEYVEPGEDFPASPQRRATAAQEDRDDSVVLPLGADTLTHNLGLPVLVVCTKCDAISVLEKEHDYRDEHFDFIQSHIRKFCLQYGAALIYTSVKENKNIDLVYKYIVQKLYGFPYKIPAVVVEKDAVFIPAGWDNDKKIGILHENFQTLKIEDNFEDIITKPPVRKFVHEKEIMAEDDQVFLMKLQSLLAKQPPTAAGRPVDASPRVPGGSPRTPNRSVSSNVASVSPIPAGSKKIDPNMKAGATSEGVLANFFNSLLSKKTGSPGGPGVGGSPGGGAAGASTSLPPSAKKSGQKPVLSDVHAELDRITRKPASVSPTTPPSPTEGEAS
modifications: phosphorylated at T408
B7: Dync1li1 pS412 (protein, UniProt Q8R1Q8 1-523, looked up)
Cytoplasmic dynein 1 light …: B6 Cytoplasmic dynein 1 light … with R51C, R54S, A212T, A214G, D220G, I345V, T477P, P515T
modifications: phosphorylated S412
B8: Crip2 pS114 (protein, UniProt P36201 1-208, looked up)
Cysteine-rich protein 2: MASKCPKCDKTVYFAEKVSSLGKDWHKFCLKCERCNKTLTPGGHAEHDGKPFCHKPCYATLFGPKGVNIGGAGSYIYEKPPTEAPQVTGPIEVPVVRTEERKTSGPPKGPSKASSVTTFTGEPNMCPRCNKRVYFAEKVTSLGKDWHRPCLRCERCSKTLTPGGHAEHDGQPYCHKPCYGILFGPKGVNTGAVGSYIYDKDPEGTVQP
modifications: phosphorylated at S114
B9: Crip2 pS19 (protein, UniProt P36201 1-208, looked up)
Cysteine-rich protein 2: B8 Cysteine-rich protein 2
modifications: phosphorylated at S19
B10: Lrpap1 pS245 (protein, UniProt Q99068 34-360, looked up)
Alpha-2-macroglobulin …: HGGKYSREKNEPEMAAKRESGEEFRMEKLNQLWEKAKRLHLSPVRLAELHSDLKIQERDELNWKKLKVEGLDGDGEKEAKLVHNLNVILARYGLDGRKDTQTVHSNALNEDTQDELGDPRLEKLWHKAKTSGKFSSEELDKLWREFLHYKEKIHEYNVLLDTLSRAEEGYENLLSPSDMTHIKSDTLASKHSELKDRLRSINQGLDRLRKVSHQGYGPATEFEEPRVIDLWDLAQSANFTEKELESFREELKHFEAKIEKHNHYQKQLEISHQKLKHVESIGDPEHISRNKEKYVLLEEKTKELGYKVKKHLQDLSSRVSRARHNEL
modifications: phosphorylated at S245

Changes are numbered by the printed parent chain.

The first assay has as its system PKGIα (analogue-sensitive C42S/M438G), cGMP-activated. Briefly: Chemical genetic phosphoproteomic screen, cGMP-activated PKGIα C42S/M438G versus unactivated control. The class given is biochemical, human PKGIα; substrates in rat heart homogenate. The note with it: control = PKGIα C42S/M438G. A digest of the protocol: (§1)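 Substrates in rat left-ventricle homogenate (20 mg ml) are labelled by engineered Met438Gly PKGIα given a bulky N6-alkylated ATPγS analogue, either as disulfide-activated M438G (oxidized, DTT-free) or as cGMP-activated C42S/M438G. Covalent capture and LC–MS/MS identify sites relative to unactivated kinase.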
As for B1, the “log2 fold change cGMP vs Control” value is given as 3.438.
For the molecule B2, the “log2 fold change cGMP vs Control” value amounted to 2.023.
Regarding B3, the “log2 fold change cGMP vs Control” value stood at 1.792.
As for B4, the “log2 fold change cGMP vs Control” value was 3.948.
As for B5, the “log2 fold change cGMP vs Control” value came to 1.156.
B6: the “log2 fold change cGMP vs Control” value stood at 3.758.
Take B7: the “log2 fold change cGMP vs Control” value was found to be 4.149.
For B8, the “log2 fold change cGMP vs Control” value was found to be 3.456.
Consider B9, for which the “log2 fold change cGMP vs Control” value came to 2.804.
B10: the “log2 fold change cGMP vs Control” value came to 2.6435.

A further assay has as its system PKGIα (analogue-sensitive M438G), disulfide-activated. Description: Chemical genetic phosphoproteomic screen, disulfide-activated PKGIα M438G versus unactivated control. The class given is biochemical, human PKGIα; substrates in rat heart homogenate. To be noted: control = PKGIα C42S/M438G. A digest of the protocol: as §1
Regarding B1, the “log2 fold change Disulfide vs Control” value was found to be 1.986.
On the same count and under the same terms, as for B2, the figure is 1.372; as for B3, 0.8616.
The same measure, in the same setting: as for B4, the figure is 1.496; as for B5, 0.8425.
As for B6, the “log2 fold change Disulfide vs Control” value came out at 1.949.
In the case of B7, the “log2 fold change Disulfide vs Control” value stood at 1.658.
B8: the “log2 fold change Disulfide vs Control” value worked out at 1.062.
Consider B9, for which the “log2 fold change Disulfide vs Control” value stood at 1.661.
For the molecule B10, the “log2 fold change Disulfide vs Control” value stood at 0.3181.

The values are drawn from paper PMC5095173, “Disulfide-activated protein kinase G Iα regulates cardiac diastolic relaxation and fine-tunes the Frank–Starling response” (Nature Communications, 2016).
